Experimental data from the nanobody polyreactivity screen of Harvey et al. (2022).

Assay: yeast display, Sf9 membrane polyspecificity reagent, FACS + sequencing; frameworks hold sequencing errors
Method in brief: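 A synthetic nanobody library was expressed on Saccharomyces cerevisiae BJ5465 by galactose induction for 36–48 hours. The library was stained for 1 hour at 4 °C with 10% biotinylated, detergent-solubilized Sf9 membrane reagent and enriched with streptavidin microbeads before FACS. Low and high (top ~1%) gates were set on anti-HA fluorescence for expression and streptavidin fluorescence for reagent binding, and each polyreactivity label reflects the gate of origin.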

| Sequence | polyreactivity (PSR sort gate) |
| --- | --- |
| QVQLVESGGGFFQAGGRLRLSCAASGRIFGINAMGWYRQAPGKERELVAAISRSGGRTYYADSVKGRFTISRDNGKNTVYFQMNSLKPEDTAVYDCAQGDAHSYSRYDYWGPGTQVTVSS | high polyreactivity |
| QVQLVESGGGLVQAGGSLRLSCAASGSTFGYYTMGWSRQAPGKERELVAAITWSGGSTYYADSVKGRFTISRHNAKNTVYLQMNSLKAEDTAVYYCAADDYWTPFGYWGQGTQVTVSS | low polyreactivity |
| QVQREESGGGLVQAGGRLRLTCAASGSIFGYYVMGWYRQAPGKERELVAAITRSGSTYYADSVKGRFTISRDNAKNTVYLQMNSLKPEDTAVYYCYADVYWPGTPYTHDYWGQGTQVTVSS | low polyreactivity |
| QVQLVESGGGLVHAGGSLRLSCAASGFIFGINAMGWYRQAPGKERELVATITSGGGTNYADSVKGRFTISRDNAKNTVYLQMKSVKPEDTAVYYCADEDDYIYFYLSMDYWGQCTQVTVSS | low polyreactivity |
| QVQLVESGGGLVQAGGSLRLSCAASGIIFRRYAMGWYRQAPGKERELVAAITSGGSTYYADSVKGRFTISRDNAKNTVYLQLHSLKPEDTAVYYCNKGGYAIRYDYYWGQGTQVTVSS | high polyreactivity |
| QVQLVESGGGLVQAGGSLRLSCAASGRIFRYYAMGWYRQAPGKETELVAAINWSGGSTYYADSVKGRFTISRDNAKNTVYLQMNSLKPEDTAVYYCNRRAYIRYDSSSLDYWGQGTQVTVSS | low polyreactivity |
| QVQLVESGGGLVQAGGSLRLSCAASGFTFEGYAMGWYRQAPGKERELVAAISYSGSSTYYADSVKGRFTISRDNAKNTVYLQMNSLKPEDTAVYYCNARRHWYSAWGYDYWGQGTQVTVSS | high polyreactivity |
| QVQLVESGGGLVHAGGSLRLSCAASGFIFDRYVMGWYRQAPGKERDLVAAINRSGGSTYYADSVKGRFTISRDNAKNTVYLQMNSLKPEDTAVYYCAADRAGSFTTMDYWGHGTQVTVSS | high polyreactivity |
| QVQLVESGGGLVQAGGSLRLSCAASGSTLASYAMGWYRQAPGKERELVAAISSSGGSTYYADSVKGRFTISRDNAKNTVYLQMNSLKPEDTAVYYCAARTRTRYGIDYYWGQGTQVTVSS | high polyreactivity |
| QVQLVESGGGLVQAGGSLRLSCAASGFIFKANAMGWYRQAPGKERELVAVITRRGGSTYYADSVKGRFTISRDNAKNTVYLQMNSLKPEDTAVYYCAAKSYTYGYNYWGQGTQVTVSS | high polyreactivity |
| QVQLVESGGGLVQAGGSLRLSCAASGRIFGTNAMGWYRPAPGKERELVADITSGGSTNYADSVKGRFTISRDNAKNTVYLQMNSLKPEDTAVYYCAAVLYSRLYWYRLDYWGQGTQVTVSS | low polyreactivity |
| QVQLVESGGGLVQAGGSLRLSCAASGSNFVRNVMGWYRQAPGKERELVAGISWNGGSTFYADSVKGRFTISRDNAKNTVYLQMNCLKPEDTAVYYCATPYGRHGWFYLYDYWGQGTLVTVSS | low polyreactivity |
| QVQLVESGGGLVQAGGSLRLSCAASGSIFGVNAMGWYRQAPGKERELVAAISSGGSTNYADSVKGRFTISRDNAKNTVYLQMNSLKPEDTAVYYCAADTNTRSNYDYWGQGTQVTVSS | low polyreactivity |
| QVQLVESGGGLVQAGGSLRLCCAASGRTFPYYALGWYRQAPGKESELVAGITSNAGSTYYADSVKGRFSISRDNAKNTVYLHRHRLKAEDTAVYYCAKYGRATRGLDNYWGQGTQVTVSS | high polyreactivity |
| QVQLVESGGGLVQAGGSLRLSCAASGFTFGAYARGWYRQAPGKERELVAAISSRGGSTYYADSVKGRFTISRDNAKNTVYLQKNSLKPEDTAVYYCAANSYRRTGYNYWGQGTQVSVSS | high polyreactivity |
| QVQLVESGGGLVQAGGSLRLSCAASGSIFVPNDMGWYRQAPGKEREFVAAITESDGSTYNADSVKGRFTISRDNAKNTVYLQMNSLKPEDTAVYYCATDSTGVTIVHFDYWGQGTQVTVSS | low polyreactivity |
| QVQLVESGGGLVQAGGSLRLSCAASGRIFPTYTMGWYRQAPGKERELLAAISGRGGNTYYADSVKGRFTISRDTAKNTVYLQMNSLKPEDTAVYYCAARYPVRNGYWGLGTQVTVSS | high polyreactivity |
